# Assay results: paper PMC4201348 (ACS Chemical Biology, 2014)
# Molecular target: soluble, recombinant SUDV GP (Boniface variant), residues 33-649 (Sudan ebolavirus (Boniface variant), UniProt Q66814)
row,Binder,binding result
1,"31C7 (antibody, V domains shown) VH: EVQLVESGGGLVQPGGSLRLSCAASGFAFNYYDMFWVRQAPGKGLEWVAYINPGGGNTYYADSVKGRFTISADTSKNTAYLQMNSLRAEDTAVYYCARQLYGNSFLDYWGQGTLVTV VL: DIQMTQSPSSLSASVGDRVTITCKASQDVTTAVAWYQQKPGKAPKLLIYWASSRYPGVPSRFSGSGSGTDFTLTISSLQPEDFATYYCQQHYSTPLTFGQGTKVEI",binds
2,"51B6 (antibody, V domains shown) VH: EVQLVESGGGLVQPGGSLRLSCAASGFAFNYYDLYWVRQAPGKGLEWVAYINPGGGNTYYPDSVKGRFTISADTSKNTAYLQMNSLRAEDTAVYYCARQLYGNSFFDYWGQGTLVTV VL: DIQMTQSPSSLSASVGDRVTITCKASQDVTTAVAWYQQKPGKAPKLLIYWASTRHTGVPSRFSGSGSGTDFTLTISSLQPEDFATYYCQQHYSTPLTFGQGTKVEI",binds
3,"34F5 (antibody, V domains shown) VH: EVQLVESGGGLVQPGGSLRLSCAASGFAFNYYDMFWVRQAPGKGLEWVAYINSGGGNTYYPDSVKGRFTISADTSKNTAYLQMNSLRAEDTAVYYCARQLYGNSFFDYWGQGTLVTV VL: DIQMTQSPSSLSASVGDRVTITCKASQDVTTAVAWYQQKPGKAPKLLIYWASARHRGVPSRFSGSGSGTDFTLTISSLQPEDFATYYCQQHYSTPLTFGQGTKVEI",binds
4,"35B5 (antibody, V domains shown) VH: EVQLVESGGGLVQPGGSLRLSCAASGFAFNYYDMFWVRQAPGKGLEWVAYINSGGGNTYYPDSVKGRFTISADTSKNTAYLQMNSLRAEDTAVYYCARQLYGNSFFDYWGQGTLVTV VL: DIQMTQSPSSLSASVGDRVTITCKASQDVTTAVAWYQQKPGKAPKLLIYWASTRHTGVPSRFSGSGSGTDFTLTISSLQPEDFATYYCQQHYSTPLTFGQGTKVEI",binds
